Results reported in patent US20050282239A1, “Cell-permeable enzyme activation reporter that can be loaded in a high throughput and gentle manner” (priority 2003, published 2005).
Ends that are not written are not given here.

What was measured:
[1] = test system: CamKII; experiment: CACE: intracellular phosphorylation of CamKII substrate in HT1080 cells; assay type: cell-based, human
Experimental: To determine whether the detached peptide substrates were in the cytosol and accessible to kinases, the intracellular phosphorylation of the translocated cargo was studied. In the initial experiment, F-CamKII-C-SS-TAT (SEQ ID NO:15) at 750 nM extracellular concentration was loaded into HT1080 cells. The cells were incubated with ionomycin (500 nM) for 15 min to increase the intracellular concentration of free Ca^2+ and activate the CamKII enzyme (Worrell and Frizzell 1991). […] The migration time of the second peak was identical to that of phosphorylated F-CamKII-C loaded into cells. 52+3% (mean±SEM) (n=5) of the F-CamKII-C was phosphorylated as determined by comparison of the peak areas. At least half of the F-CamKII-C was in the cytosol and accessible to the kinase. For these cells the average number of moles per cell was ˜2×10^−20 which is equivalent to a cytosolic concentration of ˜100 nM.
(§1) CACE has been previously described (Sims, Meredith et al. 1998; Meredith, Sims et al. 2000; Li, Wu et al. 2001). Briefly, cells were placed on an inverted fluorescence microscope stage (Diaphot 300, Nikon, Japan) and maintained at 37° C. with an objective heater (Bioptechs; Butler, Pa.) prior to lysis unless stated otherwise. The cells were continually washed with ECB maintained at 37° C. (unless otherwise indicated) with a flow rate of 1 ml/min and a total chamber volume of 0.5 ml. The inlet of a capillary (30 μm I.D., 360 μm O.D., 75 cm long) was positioned 10 μm above the cell. The inverted microscope was coupled to a pulsed Nd:YAG laser and a CE system (Sims, 1998). The CACE-based assay was performed as previously described (U, 2001; Meredith, 2000). Cells were always maintained in ECB when analyzed by the CACE.
(§2) CE was performed as described (Sims, Meredith et al. 1998), with the following modifications. […] The loaded volume was calculated from Poiseulle's equation and from contributions by spontaneous fluid displacement and diffusion (Weinberger, 2000; Fishman, 1994; Crank, 1989). […] Analytes were detected by laser-induced fluorescence (Sims, Meredith et al. 1998). […]

[2] = test system: HT1080 cells; experiment: CACE single-cell analysis: loading and release of cargo; assay type: cell-based, human
[3] = In vitro UVA photocleavage of photolabile conjugate, CE quantification; assay type: physicochemical
Description: Therefore, we designed a second detachable linker between the TAT(49-57) and the substrate peptide. An Fmoc-aminoethyl photolabile moiety was inserted between the fluorescently-labeled substrate and the TAT(49-57) sequences using standard Fmoc peptide chemistry. The relative order of the different portions of the conjugate was: fluorescein-substrate-PLL-TAT(49-57). Two different substrate peptides were conjugated to TAT(49-57) to form F-PKB-PLL-TAT (SEQ ID NO:18) and F-CamKII-PLL-TAT (SEQ ID NO:19). To determine the time and irradiation intensity needed to photocleave the conjugated peptides, standard solutions (1 nM or 10 μM) of F-PKB-PLL-TAT (SEQ ID NO:18) were illuminated with long-wavelength UV light (UVA) for varying times. The sample was then loaded into a capillary and electrophoresis performed. The concentration of the released substrate peptide was quantified from its fluorescence. At the irradiation intensity used, maximal cleavage of the substrate peptide from the TAT(49-57) sequence was achieved within 20 minutes. […] After a 10 s exposure, 2% of the conjugate was photoreleased. […] The fluorescein was not substantially photobleached by the UVA-induced cleavage since the amount of fluorescent peptide detected after a 4 h irradiation was almost identical to that after 20 min of UVA exposure.
The photolabile TAT(49-57) conjugate (e.g., SEQ ID NOs:18 or 19) (1 nM or 10 μM in ECB) was illuminated with ultraviolet A (UVA; 20 mW/cm^2) using a 365 nm light source (UVP Blak-Ray B100AP; Upland, Calif.). […] for the photolabile group was 365 nm. After photo-release, the fluorescent substrate was resolved by electrophoresis and then quantified by CE. Detection wavelengths were: excitation, 488 nm; emission, 505-565 nm.
A known concentration of the photo-cleavable reporter was placed in an uncapped, shallow vial. The sample was then illuminated with the UV light source for varying times as described above. A small amount of the sample was then removed and the amount of released peptide was quantified using CE. […]

[4] = target: T1, PKB (Homo sapiens, UniProt P31749); experiment: CACE: intracellular phosphorylation of PKB substrate in HT1080/PTEN cells; assay type: cell-based; settings: 1 μM extracellular, UVA 10 s
T1 construct: endogenous in cells; host or cells: HT1080 cells; HT1080/PTEN cells (engineered to over-express wild type PTEN, PKB itself not transfected)
T1 sequence (P31749 whole entry): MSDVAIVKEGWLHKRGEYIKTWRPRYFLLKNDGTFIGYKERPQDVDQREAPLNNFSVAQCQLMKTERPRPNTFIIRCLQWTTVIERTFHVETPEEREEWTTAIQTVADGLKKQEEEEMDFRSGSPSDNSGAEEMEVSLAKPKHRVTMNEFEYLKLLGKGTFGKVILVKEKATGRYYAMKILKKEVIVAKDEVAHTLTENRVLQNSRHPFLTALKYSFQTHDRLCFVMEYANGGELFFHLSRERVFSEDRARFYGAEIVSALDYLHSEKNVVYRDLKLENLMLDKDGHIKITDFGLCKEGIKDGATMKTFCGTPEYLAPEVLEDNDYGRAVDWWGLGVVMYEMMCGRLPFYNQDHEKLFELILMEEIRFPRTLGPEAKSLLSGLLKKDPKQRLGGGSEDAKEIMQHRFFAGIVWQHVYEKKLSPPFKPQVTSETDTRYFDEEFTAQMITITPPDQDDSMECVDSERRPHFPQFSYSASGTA
Experimental: Previous investigators developed cleavable PTD-cargo conjugates by engineering a disulfide linkage between the two domains (Stein, Weiss et al. 1999; Hallbrink, Floren et al. 2001). […] TAT(49-57)(SEQ ID NO:2) was conjugated via a disulfide bond to cysteines added to substrate peptides for CamKII (F-CamKII-C; SEQ ID NO:13) or PKB (F-PKB-C; SEQ ID NO:14), denoted F-CamKII-C-SS-TAT (SEQ ID NO:15) and F-PKB-C-SS-TAT (SEQ ID NO:16), respectively. The TAT(49-57)-Conjugated substrates were incubated with cells (HT1080 or HT1080/PTEN cells) and the contents of the cells were analyzed by the CACE. […]
CACE has been previously described (Sims, Meredith et al. 1998; Meredith, Sims et al. 2000; Li, Wu et al. 2001). Briefly, cells were placed on an inverted fluorescence microscope stage (Diaphot 300, Nikon, Japan) and maintained at 37° C. with an objective heater (Bioptechs; Butler, Pa.) prior to lysis unless stated otherwise. […] Cells were always maintained in ECB when analyzed by the CACE.
as §2

[5] = target: T1, PKB; experiment: CACE: intracellular phosphorylation of PKB substrate in HT1080 cells; assay type: cell-based
Description: Since the properties of F-PKB (SEQ ID NO:17) microinjected into HT1080 cells have been well characterized, experiments were undertaken to compare the fate of F-PKB-C loaded as F-PKB-C-SS-TAT (SEQ ID NO:16) into HT1080 cells to that of the microinjected F-PKB (SEQ ID NO:17). When microinjected, the percentage of phosphorylated F-PKB depended on the relative, steady-state levels of both the kinases and phosphatases. This observation is shown in electrophoretic traces from cells loaded with F-PKB-C-SS-TAT (1 μM) (FIG. 6). A single asterisk denotes the migration time of F-PKB, and a double asterisk denotes the migration time of phosphorylated F-PKB from cells on the day of the experiment.
as §1
CE was performed as described (Sims, Meredith et al. 1998), with the following modifications. The inner walls of the capillaries (30 μm I.D., 360 μm O.D.) were coated with poly(acrylate) (Wang, Hu et al. 2003). The outlet of the capillary was held at a negative potential of 18-21 kV, and the inlet reservoir was held at ground potential. Under these conditions, the current through the capillary was typically ˜36 μA. Solutions of standards were loaded into the capillary by gravitational fluid flow. The loaded volume was calculated from Poiseulle's equation and from contributions by spontaneous fluid displacement and diffusion (Weinberger, 2000; Fishman, 1994; Crank, 1989). To estimate the number of moles of peptide in an unknown solution or within a cell, the peak area from the electrophoretic trace of the solution or the cell was compared to that of a standard of known concentration separated by electrophoresis on the same day. A 1 pL cell volume and 100% peptide recovery was assumed in calculating intracellular peptide concentration (Meredith, Sims et al. 2000; Sims, Meredith et al. 1998). Analytes were detected by laser-induced fluorescence (Sims, Meredith et al. 1998).
Cells were incubated at room temperature for 5 minutes in 1% bovine serum albumin (BSA) in ECB, washed in ECB, and then incubated for 5 minutes at room temperature with a substrate conjugated to TAT(49-57). The cells were then washed with 1% BSA in ECB. Cells loaded with the disulfide conjugate were placed in supplement DMEM (10% FCS, 4 mM L-glutamine, 100 U/mL penicillin and 100 μg/mL streptomycin) and incubated at 37° C. in 5% CO2 for 20 minutes. Cells loaded with the photolabile conjugate were placed in supplemented DMEM and incubated at 37° C. in 5% CO2 for 10 minutes (unless stated otherwise) and were then illuminated with a UV light source for 10 seconds (a radiant energy/unit area of 2 kJ/m^2). The supplemented DMEM was exchanged and the cells were incubated another 10 minutes at 37° C. in 5% CO2. Just prior to analysis the cells were washed into ECB.

Substance: Lys Lys Ala Leu His Arg Gln Glu Thr Val Asp Ala Leu Cys (KKALHRQETVDALC-NH2; not fully specified (N-terminus); printed as Lys Lys Ala Leu His Arg Gln Glu Thr Val Asp Ala Leu Cys; also: fluorescein label, position not given here) [F-CamKII-C, fluorescein-labeled CamKII substrate with added cysteine]
- phosphorylation in unstimulated cells ([1]; HT1080 cells, no constitutive CamKII activity): little to no phosphorylation

Substance: Gly Arg Pro Arg Ala Ala Thr Phe Ala Glu Gly Arg Lys Lys Arg Arg Gln Arg Arg Arg (GRPRAATFAEGRKKRRQRRR-NH2; not fully specified (residue 11, N-terminus); printed as Gly Arg Pro Arg Ala Ala Thr Phe Ala Glu Gly Arg Lys Lys Arg Arg Gln Arg Arg Arg; also: fluorescein, position not given here, photolabile linker, position not given here) [F-PKB-PLL-TAT, fluorescein-PKB substrate-photolabile linker-TAT(49-57)]
- cytoplasmic concentration of free F-PKB ([2]; 1 μM 5 min, 30 min incubation, UVA 10 s): ~200 nM
- average quantity of F-PKB detected per cell ([2]; 1 μM 5 min, 30 min incubation, UVA 10 s, n=15): 2e-19 ± 9e-20 mol
- internalization process into the cytosol ([2]; 1 μM, 37° C.): complete within one hour
- total amount of F-PKB detected versus incubation time ([2]; 1 μM, 37° C., 5 min adsorption, wash, varying incubation, UVA 10 s): increased over the initial hour of incubation and then stabilized
- amount of F-PKB measured per cell ([2]; 1 μM, 4° C.): reduced
- amount of F-PKB measured per cell ([2]; 1 μM, 23° C. and 37° C.): similar
- conjugate photoreleased ([3]; 10 s UVA exposure): 2%
- time to maximal cleavage of substrate peptide from TAT(49-57) ([3]; UVA, 1 nM or 10 μM solution): ≤ 20 min
- free substrate peptide ([3]; without UVA illumination): no free substrate peptide could be detected
- phosphorylation of released F-PKB [4]: not seen
- F-PKB present in the phosphorylated form ([5]; 1 μM extracellular, UVA 10 s, n=15): 67±7%
- percentage of phosphorylated F-PKB versus incubation time ([5]; 1 μM, 37° C.): did not vary with the incubation time
- time scale on which F-PKB is accessible to kinase ([5]; 1 μM, 37° C.): < 30 min
- phosphorylation of F-PKB ([5]; 1 μM, 4° C.): Essentially no phosphorylation
- percentage of phosphorylated F-PKB ([5]; 1 μM, 23° C. and 37° C.): similar

Substance: KKALHRQETVDALCRKKRRQRRR [F-CamKII-PLL-TAT]
- total F-CamKII phosphorylated ([1]; 300 nM extracellular, ionomycin 500 nM 15 min, n=3): 67±17%
- average concentration of F-CamKII in the cytosol ([2]; 300 nM extracellular): 180 nM
- detectable F-CamKII per cell ([2]; 300 nM extracellular, n=3): 1.8e-19 ± 1.9e-19 mol

Substance: KKALHRQETVDALCRKKRRQRRR [F-CamKII-C-SS-TAT]
- F-CamKII-C phosphorylated (mean±SEM) ([1]; 750 nM extracellular, ionomycin 500 nM 15 min, n=5): 52+3%
- average number of moles per cell ([2]; 750 nM extracellular, ionomycin-treated cells): ~2e-20 mol
- cytosolic concentration ([2]; 750 nM extracellular, ionomycin-treated cells, 1 pL cell volume assumed): ~100 nM

Substance: Gly Arg Pro Arg Ala Ala Thr Phe Ala Glu Gly (GRPRAATFAEG-NH2; not fully specified (N-terminus); printed as Gly Arg Pro Arg Ala Ala Thr Phe Ala Glu Gly; also: fluorescein label, position not given here) [F-PKB, fluorescein-labeled substrate for protein kinase B]
- peptide phosphorylated at steady state ([5]; microinjected): approximately 70%
- time to steady state of phosphorylation ([5]; microinjected): less than 2 min
